The values below come from publication doi:10.1101/2021.05.10.443397.

For the assay, the target named is clamp-stabilised KoRV envelope (Env-clamp) (koala retrovirus (KoRV-A)). In words: SEC + other: negative-stain electron microscopy.

By stoichiometry N is commonly meant the number of molecules, sites or subunits per partner or assembly. For “clamp-stabilised KoRV envelope (Env-clamp)”, the stoichiometry N was determined as 3.
